Experiments:
[1] = target: T1, HC8 (α7) subunit of the human 20S proteasome, P25788
T1 chain: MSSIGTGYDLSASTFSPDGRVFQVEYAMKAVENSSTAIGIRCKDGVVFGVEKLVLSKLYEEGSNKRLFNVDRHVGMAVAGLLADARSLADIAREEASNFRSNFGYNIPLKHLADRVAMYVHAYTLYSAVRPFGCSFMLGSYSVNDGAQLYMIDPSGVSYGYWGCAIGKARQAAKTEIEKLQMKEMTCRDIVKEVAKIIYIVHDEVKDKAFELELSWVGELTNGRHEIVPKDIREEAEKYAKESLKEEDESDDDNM

[2] = target: T2, HC8 SS 243,250AA mutant, P25788
T2 chain: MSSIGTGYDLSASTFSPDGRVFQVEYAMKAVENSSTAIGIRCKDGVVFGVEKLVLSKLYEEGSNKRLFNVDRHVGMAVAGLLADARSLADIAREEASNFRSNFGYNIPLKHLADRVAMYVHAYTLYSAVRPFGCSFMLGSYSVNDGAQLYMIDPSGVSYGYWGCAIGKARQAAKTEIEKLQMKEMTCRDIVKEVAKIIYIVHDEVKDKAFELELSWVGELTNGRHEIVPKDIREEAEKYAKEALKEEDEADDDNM

B1: NF-κB inducing kinase (NIK), human, full length (protein)
chain: MAVMEMACPGAPGSAVGQQKELPKPKEKTPPLGKKQSSVYKLEAVEKSPVFCGKWEILNDVITKGTAKEGSEAGPAAISIIAQAECENSQEFSPTFSERIFIAGSKQYSQSESLDQIPNNVAHATEGKMARVCWKGKRRSKARKKRKKKSSKSLAHAGVALAKPLPRTPEQESCTIPVQEDESPLGAPYVRNTPQFTKPLKEPGLGQLCFKQLGEGLRPALPRSELHKLISPLQCLNHVWKLHHPQDGGPLPLPTHPFPYSRLPHPFPFHPLQPWKPHPLESFLGKLACVDSQKPLPDPHLSKLACVDSPKPLPGPHLEPSCLSRGAHEKFSVEEYLVHALQGSVSSSQAHSLTSLAKTWAARGSRSREPSPKTEDNEGVLLTEKLKPVDYEYREEVHWATHQLRLGRGSFGEVHRMEDKQTGFQCAVKKVRLEVFRAEELMACAGLTSPRIVPLYGAVREGPWVNIFMELLEGGSLGQLVKEQGCLPEDRALYYLGQALEGLEYLHSRRILHGDVKADNVLLSSDGSHAALCDFGHAVCLQPDGLGKSLLTGDYIPGTETHMAPEVVLGRSCDAKVDVWSSCCMMLHMLNGCHPWTQFFRGPLCLKIASEPPPVREIPPSCAPLTAQAIQEGLRKEPIHRVSAAELGGKVNRALQQVGGLKSPWRGEYKEPRHPPPNQANYHQTLHAQPRELSPRAPGPRPAEETTGRAPKLQPPLPPEPPEPNKSPPLTLSKEESGMWEPLPLSSLEPAPARNPSSPERKATVPEQELQQLEIELFLNSLSQPFSLEEQEQILSCLSIDSLSLSDDSEKNPSKASQSSRDTLSSGVHSWSSQAEARSSSWNMVLARGRPTDTPSYFNGVKVQIQSLNGEHLHIREFHRVKVGDIATGISSQIPAAAFSLVTKDGQPVRYDMEVPDSGIDLQCTLAPDGSFAWSWRVKHGQLENRP
in vitro kinase assay (phosphorylation of HC8 in the immunoprecipitate) [1]: HC8 was found to be a substrate for NIK phosphorylation in an in vitro kinase assay | in vitro kinase assay (phosphorylation of HC8 in the immunoprecipitate) [2]: Replacement of two serine residues on HC8 (amino acids 243 and 250) by alanine completely abolished the NIK-induced phosphorylation of HC8

Source: US20090098106
